Results on one molecule are retold here after patent US20230105209A1 (ACADEMIA SINICA, published 2023).

The target in this experiment is SARS-CoV-2 spike S2 (SARS-CoV-2, UniProt P0DTC2 686-1213). Put plainly: ELISA. In general terms: In an ELISA, binding on a coated surface is turned into a signal by an enzyme label.

B1: m31A7 monoclonal antibody (chimeric IgG1) (antibody, V domains shown)
VH: EVQLQQSGPEMVKPGASVKISCKTSGYTFTEYTIYWVKQSHGKSLEWLGGINPNIGDTTYNQKFKGKATLTVDTSSSTAYMELRSLTSEDSAVYYCAREVYNYSFAYWGQGTLVTVSA
VL: DIVMSQSPSSLAVSVGEKVTMSCKSSQSLLYSSNQKNYLAWYQQKLGQTPKLLIYWASSRESGVPDRFTGSGSGTDFTLTISSVRAEDLAVYYCQQYYRYPLTFGVGTKLELKR
notes: also called m31A7 mAb; m31A7 IgG
As to B1, the binding result was “no binding”.
